In US20150197571A1:
One block for each binder: values may come before it.

Legend:
[1] = biological target: T1, human PD-L2 expressed on 300.19 cells (human) (UniProt Q9BQ51); assay: FACS on hPD-L2 300 cells, supernatant 1 to 10
T1 sequence: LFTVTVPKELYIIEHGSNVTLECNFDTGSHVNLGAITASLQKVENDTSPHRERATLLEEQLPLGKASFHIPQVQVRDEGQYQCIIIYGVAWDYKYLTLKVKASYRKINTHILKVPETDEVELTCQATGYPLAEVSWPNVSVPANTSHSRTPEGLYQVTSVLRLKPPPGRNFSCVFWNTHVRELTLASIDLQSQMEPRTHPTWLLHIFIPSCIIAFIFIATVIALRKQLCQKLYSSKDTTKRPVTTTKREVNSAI

[2] = biological target: T1, human PD-L2 expressed on 300.19 cells (human); assay: FACS on hPD-L2 300 cells, supernatant 1 to 100
[3] = biological target: T1, human PD-L2 expressed on 300.19 cells (human); assay: FACS on hPD-L2 300 cells, supernatant undiluted
[4] = biological target: T1, human PD-L2 expressed on 300.19 cells (human); assay: FACS blockade, PD-1-hIgG1 on PD-L2 300.19 cells
[5] = biological target: T1, human PD-L2 expressed on 300.19 cells (human); assay: FACS competition, PD-1-Ig on hPD-L2 300 cells, mAb 10 ug/ml
[6] = biological target: T1, human PD-L2 expressed on 300.19 cells (human); assay: FACS competition, PD-1-Ig on hPD-L2 300 cells, mAb 30 ug/ml
[7] = biological target: T1, human PD-L2 expressed on 300.19 cells (human); assay: FACS competition, PD-1-Ig on hPD-L2 300 cells, mAb 90 ug/ml
[8] = biological target: T1, human PD-L2 expressed on 300.19 cells (human); assay: FACS competition, PD-1-Ig on hPD-L2 300 cells, mAb 1.1 ug/ml
[9] = biological target: T1, human PD-L2 expressed on 300.19 cells (human); assay: FACS competition, PD-1-Ig on hPD-L2 300 cells, mAb 3.3 ug/ml
[10] = biological target: T1, human PD-L2 expressed on 300.19 cells (human); assay: FACS competition, PD-1-Ig on hPD-L2 300 cells, mAb 0.04 ug/ml
[11] = biological target: T1, human PD-L2 expressed on 300.19 cells (human); assay: FACS competition, PD-1-Ig on hPD-L2 300 cells, mAb 0.12 ug/ml
[12] = biological target: T1, human PD-L2 expressed on 300.19 cells (human); assay: FACS competition, PD-1-Ig on hPD-L2 300 cells, mAb 0.37 ug/ml
[13] = biological target: T1, human PD-L2 expressed on 300.19 cells (human); assay: FACS, hybridoma supernatant on 300.19 cells expressing human PD-L2
[14] = biological target: human PD-L1 expressed on 300.19 cells (human) (UniProt Q9NZQ7); assay: FACS on hPD-L1 300 cells, antibody 1 ug/ml
[15] = biological target: T1, human PD-L2 expressed on 300.19 cells (human); assay: FACS on hPD-L2 300 cells, antibody 1 ug/ml
[16] = biological target: human PD-L1 expressed on 300.19 cells (human) (UniProt Q9NZQ7); assay: FACS on hPD-L1 300 cells, antibody 10 ug/ml
[17] = biological target: T1, human PD-L2 expressed on 300.19 cells (human); assay: FACS on hPD-L2 300 cells, antibody 10 ug/ml
[18] = biological target: human PD-L1 expressed on 300.19 cells (human) (UniProt Q9NZQ7); assay: FACS on hPD-L1 300 cells, antibody 0.1 ug/ml
[19] = biological target: T1, human PD-L2 expressed on 300.19 cells (human); assay: FACS on hPD-L2 300 cells, antibody 0.1 ug/ml
[20] = biological target: human PD-L1 expressed on 300.19 cells (human) (UniProt Q9NZQ7); assay: FACS blockade, B7-1-hIgG on 300-hPD-L1 cells, mAb 5 ug/ml
[21] = biological target: human PD-L1 expressed on 300.19 cells (human) (UniProt Q9NZQ7); assay: FACS blockade, B7-1-hIgG on 300-hPD-L1 cells, mAb 10 ug/ml
[22] = biological target: human PD-L1 expressed on 300.19 cells (human) (UniProt Q9NZQ7); assay: FACS blockade, B7-1-hIgG on 300-hPD-L1 cells, mAb 20 ug/ml
[23] = biological target: human PD-L1 expressed on 300.19 cells (human) (UniProt Q9NZQ7); assay: FACS competition, PD-1-Ig on hPD-L1 300 cells, mAb 10 ug/ml
[24] = biological target: human PD-L1 expressed on 300.19 cells (human) (UniProt Q9NZQ7); assay: FACS competition, PD-1-Ig on hPD-L1 300 cells, mAb 30 ug/ml
[25] = biological target: human PD-L1 expressed on 300.19 cells (human) (UniProt Q9NZQ7); assay: FACS competition, PD-1-Ig on hPD-L1 300 cells, mAb 90 ug/ml
[26] = biological target: human PD-L1 expressed on 300.19 cells (human) (UniProt Q9NZQ7); assay: FACS blockade, B7-1-hIgG on 300-hPD-L1 cells, mAb 2.5 ug/ml
[27] = biological target: human PD-L1 expressed on 300.19 cells (human) (UniProt Q9NZQ7); assay: FACS competition, PD-1-Ig on hPD-L1 300 cells, mAb 1.1 ug/ml
[28] = biological target: human PD-L1 expressed on 300.19 cells (human) (UniProt Q9NZQ7); assay: FACS competition, PD-1-Ig on hPD-L1 300 cells, mAb 3.3 ug/ml
[29] = biological target: human PD-L1 expressed on 300.19 cells (human) (UniProt Q9NZQ7); assay: FACS blockade, B7-1-hIgG on 300-hPD-L1 cells, mAb 1.25 ug/ml
[30] = biological target: human PD-L1 expressed on 300.19 cells (human) (UniProt Q9NZQ7); assay: FACS competition, PD-1-Ig on hPD-L1 300 cells, mAb 0.04 ug/ml
[31] = biological target: human PD-L1 expressed on 300.19 cells (human) (UniProt Q9NZQ7); assay: FACS competition, PD-1-Ig on hPD-L1 300 cells, mAb 0.12 ug/ml
[32] = biological target: human PD-L1 expressed on 300.19 cells (human) (UniProt Q9NZQ7); assay: FACS competition, PD-1-Ig on hPD-L1 300 cells, mAb 0.37 ug/ml
[33] = biological target: human PD-L1 expressed on 300.19 cells (human) (UniProt Q9NZQ7); assay: FACS blockade, B7-1-hIgG on 300-hPD-L1 cells, mAb 0.078 ug/ml
[34] = biological target: human PD-L1 expressed on 300.19 cells (human) (UniProt Q9NZQ7); assay: FACS blockade, B7-1-hIgG on 300-hPD-L1 cells, mAb 0.156 ug/ml
[35] = biological target: human PD-L1 expressed on 300.19 cells (human) (UniProt Q9NZQ7); assay: FACS blockade, B7-1-hIgG on 300-hPD-L1 cells, mAb 0.313 ug/ml
[36] = biological target: human PD-L1 expressed on 300.19 cells (human) (UniProt Q9NZQ7); assay: FACS blockade, B7-1-hIgG on 300-hPD-L1 cells, mAb 0.625 ug/ml
[37] = biological target: human PD-L1 expressed on 300.19 cells (human) (UniProt Q9NZQ7); assay: FACS blockade, B7-1-hIgG on 300-hPD-L1 cells, mAb 0.0098 ug/ml
[38] = biological target: human PD-L1 expressed on 300.19 cells (human) (UniProt Q9NZQ7); assay: FACS blockade, B7-1-hIgG on 300-hPD-L1 cells, mAb 0.0195 ug/ml
[39] = biological target: human PD-L1 expressed on 300.19 cells (human) (UniProt Q9NZQ7); assay: FACS blockade, B7-1-hIgG on 300-hPD-L1 cells, mAb '0.0.39' [sic] ug/ml

Chain of UniProt Q9NZQ7 (Q9NZQ7 19-290): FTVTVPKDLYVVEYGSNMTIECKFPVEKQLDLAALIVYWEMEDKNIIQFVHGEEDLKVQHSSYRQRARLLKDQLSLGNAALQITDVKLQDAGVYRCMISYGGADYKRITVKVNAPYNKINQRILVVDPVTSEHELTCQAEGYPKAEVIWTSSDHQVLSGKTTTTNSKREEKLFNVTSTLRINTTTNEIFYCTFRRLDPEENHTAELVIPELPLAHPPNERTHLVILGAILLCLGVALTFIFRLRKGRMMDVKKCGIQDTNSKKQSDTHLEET

Mean of PE signal [1]: 757 | Mean of PE signal [2]: 672 | Mean of PE signal [3]: 840 | MFI of bound PD-1-Ig (inversely proportional to blockage) [4]: 21100 | Mean of PE Signal (bound PD-1-Ig) [5]: 56800 | Mean of PE Signal (bound PD-1-Ig) [6]: 56100 | Mean of PE Signal (bound PD-1-Ig) [7]: 52200 | Mean of PE Signal (bound PD-1-Ig) [8]: 54600 | Mean of PE Signal (bound PD-1-Ig) [9]: 56000 | Mean of PE Signal (bound PD-1-Ig) [10]: 54700 | Mean of PE Signal (bound PD-1-Ig) [11]: 52500 | Mean of PE Signal (bound PD-1-Ig) [12]: 52400 | MFI [13]: 93
B1: 4H1 monoclonal antibody (antibody, V domains shown)
VH: DVQLQESGPGLVKPSQSLSLTCTVTDYSITSDYAWTWIRQFPGNKLEWMGYITYRGTTRYNPSLTSRISFTRDTSKNQLFLQLNSVTTEDTGTYCCARSMITTGYYAMDYWGQGTSVTVSS
VL: DIVMTQSHKFMSTSVGDRVSISCKASQDVGISVAWYQQKPGQSPKLLIYWASTRHTGVPVRFTGSGSGTDFTLTISNVQSEDLADYFCQQYSSYPPTFGAGTKLELK

Mean of PE signal [14]: 234000 | Mean of PE signal [15]: 150 | Mean of PE signal [16]: 235000 | Mean of PE signal [17]: 251 | Mean of PE signal [18]: 109000 | Mean of PE signal [19]: 150 | Mean of PE Signal (bound B7-1-Ig) [20]: 853 | Mean of PE Signal (bound B7-1-Ig) [21]: 797 | Mean of PE Signal (bound B7-1-Ig) [22]: 811 | Mean of PE Signal (bound PD-1-Ig) [23]: 52 | Mean of PE Signal (bound PD-1-Ig) [24]: 53 | Mean of PE Signal (bound PD-1-Ig) [25]: 54 | Mean of PE Signal (bound PD-1-Ig) [5]: 53800 | Mean of PE Signal (bound PD-1-Ig) [6]: 53900 | Mean of PE Signal (bound PD-1-Ig) [7]: 55100 | Mean of PE Signal (bound B7-1-Ig) [26]: 823 | Mean of PE Signal (bound PD-1-Ig) [27]: 51 | Mean of PE Signal (bound PD-1-Ig) [28]: 50 | Mean of PE Signal (bound PD-1-Ig) [8]: 56100 | Mean of PE Signal (bound PD-1-Ig) [9]: 56700 | Mean of PE Signal (bound B7-1-Ig) [29]: 788 | Mean of PE Signal (bound PD-1-Ig) [30]: 6100 | Mean of PE Signal (bound PD-1-Ig) [31]: 523 | Mean of PE Signal (bound PD-1-Ig) [32]: 65 | Mean of PE Signal (bound PD-1-Ig) [10]: 58800 | Mean of PE Signal (bound PD-1-Ig) [11]: 53900 | Mean of PE Signal (bound PD-1-Ig) [12]: 52900 | Mean of PE Signal (bound B7-1-Ig) [33]: 807 | Mean of PE Signal (bound B7-1-Ig) [34]: 853 | Mean of PE Signal (bound B7-1-Ig) [35]: 770 | Mean of PE Signal (bound B7-1-Ig) [36]: 850 | Mean of PE Signal (bound B7-1-Ig) [37]: 2540 | Mean of PE Signal (bound B7-1-Ig) [38]: 1710 | Mean of PE Signal (bound B7-1-Ig) [39]: 1230
B2: 29E.2A3 (antibody, from a related filing, V domains shown)
VH: EVQLQQSGPELVKPGASVKMSCKASGYTFTSYVMHWVKQKPGQGLEWIGYVNPFNDGTKYNEMFKGKATLTSDKSSSTAYMELSSLTSEDSAVYYCARQAWGYPWGQGTLVTVSA
VL: DIVLTQSPASLAVSLGQRATISCRATESVEYYGTSLVQWYQQKPGQPPKLLIYAASSVDSGVPARFSGSGSGTDFSLTIHPVEEDDIAMYFCQQSRRVPYTFGGGTKLEIK
